Assay results taken from publication PMC7292962 (Biochemistry, 2019).
Where two headings read alike, the source gives them in different places.

Experiments:
Test in all cases: AUC
AUC [1] = biological target: the molecule itself
AUC [2] = biological target: the molecule itself; remark: listed apart in the source
AUC [3] = biological target: the molecule itself; remark: listed apart in the source
AUC [4] = biological target: the molecule itself; remark: listed apart in the source

B1: S100A12 (natural protein, human)
chain: TKLEEHLEGIVNIFHQYSVRKGHFDTLSKGELKQLLTKELANTIKNIKDKAVIDEIFQGLDANQDEQVDFQEFISLVAIALKAAHYHTHKE
- stoichiometry N (AUC [1]): 2
- Kd (AUC [2]): 4590 µM
- Kd (AUC [3]): 56.7 µM
- Kd (AUC [4]): 13.2 µM
